Like-named read-outs stand apart in the source and are kept apart here. Each block holds one binder with its values, some of them ahead of it.
Tests used:
[1] = biological target: T1, wild type full-length cynomolgus monkey TIGIT expressed on CHO cells (cynomolgus monkey, UniProt A0A7N9I9V4 89-312); assay: flow cytometry, blocking of human CD155-Fc-PE binding to CHO cells expressing cynomolgus TIGIT
T1 construct: whole, on cells; also called cynomolgus TIGIT-CHO cells

[2] = biological target: T2, full-length ECD of human TIGIT (His-tagged) (human); assay: SPR Biacore T200, Protein A capture, 1:1 model, experiment #1
T2 construct: also called His-tagged human TIGIT; human TIGIT extracellular domain
T2 chain: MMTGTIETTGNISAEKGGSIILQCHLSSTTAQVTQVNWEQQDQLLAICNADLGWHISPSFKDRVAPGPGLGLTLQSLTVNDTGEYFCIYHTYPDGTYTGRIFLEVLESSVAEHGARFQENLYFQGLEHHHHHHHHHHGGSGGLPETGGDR
Experimental: (§1) Briefly, surface plasmon resonance experiments were performed using a Biacore T200 instrument, and the association rate (kₐ), dissociation rate (kd), and dissociation constant (KD) were calculated from each experiment using a 1:1 binding model with Biacore T200 Evaluation Software.
(§2) Multispecific molecules were captured using a 30-sec injection at a flow rate of 10 μl/min to reach about 1000 resonance units (RUs). […] The sensor chip was regenerated between cycles with two 30-sec injections of 10 mM glycine, pH 1.5. Sensorgrams were evaluated and fit to a simple Langmuir 1:1 interaction model using the global data analysis option of BIAevaluation 3.0 software. Data quality was verified by visually inspecting deviations and curve fitting, and by evaluating the parameters of Rₘₐₓ, Chi2, and Tc.

[3] = biological target: T2, full-length ECD of human TIGIT …; assay: SPR Biacore T200, Protein A capture, 1:1 model, experiment #2
Experimental: as §1, §2

[4] = biological target: T3, wild type full-length human TIGIT expressed on cells (human, UniProt Q495A1 22-244); assay: flow cytometry, blocking of CD155-Fc-PE binding to human TIGIT CHO cells, geomean of 3 experiments
T3 construct: whole, on cells; also called human TIGIT-CHO; human TIGIT CHO cells
T3 sequence (looked up): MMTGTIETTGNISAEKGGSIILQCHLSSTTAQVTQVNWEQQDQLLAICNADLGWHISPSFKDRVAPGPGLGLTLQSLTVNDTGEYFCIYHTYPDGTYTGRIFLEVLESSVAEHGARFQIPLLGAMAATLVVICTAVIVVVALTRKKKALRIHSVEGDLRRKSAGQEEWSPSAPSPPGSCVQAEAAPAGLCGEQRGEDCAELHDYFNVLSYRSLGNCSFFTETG
Experimental: (§3) A 4× concentrated intermediate stock of each multispecific molecule was prepared in a microplate. Antibodies were serially diluted 1-to-3 in FACS buffer. […] Lastly, 25 μL of human TIGIT-CHO cells, prepared as described above, were added to each well. After a 30-minute incubation on ice, the cells were washed twice with cold FACS Buffer, and the cells were analyzed by flow cytometry (BD LSR Fortessa Flow Cytometer). The data were analyzed using the FlowJo software by sequentially gating on the FSC-A vs. SSC-A and SSC-H vs. SSC-A. Mean fluorescence intensity (MFI) values for PE were calculated, and the data were plotted by GraphPad Prism software and analyzed as described above.

[5] = biological target: CD8+ T cells (CD3-stimulated; Day 4); assay: flow cytometry on activated primary human T cells, gated CD8+, donor 2; PE anti-human IgG detection
Experimental: A total of 8 dilutions ranging from 50 μg/mL to 0.000005 μg/mL were prepared. After four days, the sample plates were centrifuged for two minutes at 2000 rpm, and supernatants were discarded. Samples were blocked with FcγR Block prepared in FACs buffer at 5 μL per 100 μL test for 10 minutes. Sample plates were then centrifuged for two minutes at 2000 rpm, and the supernatant was discarded. […] Sample plates were incubated for 30 minutes at 4° C. Cells were washed by addition of cold sample buffer and centrifuged for two minutes at 2000 rpm, and the supernatant was discarded. This wash was repeated once.
Cells were then resuspended in a cocktail of fluorescently labeled antibodies. A cocktail of fluorescently labeled antibodies sufficient for all samples was prepared in FACs buffer. 100 μL of antibody per well was then added to a round-bottom 96-well plate. The sample plate was incubated for 20 minutes on ice. Cells were washed by addition of cold sample buffer, centrifuged for two minutes at 2000 rpm, and supernatants discarded. […]
Antibody binding was measured by flow cytometry using a BD LSR Fortessa Flow Cytometer. […] 100,000 events were recorded for each sample. Samples were analyzed by sequentially gating on the following populations: FSC-A vs. SSC-A, FSC-H vs. FSC-A, SSC-A vs. LIVE/DEAD, CD4 vs. CD8, and SSC vs. CD25. Mean fluorescence intensity (MFI) was calculated.

[6] = biological target: T3, wild type full-length human TIGIT …; assay: flow cytometry, dual binding: CHO hu-TIGIT cells with antibody and soluble huCD96-His, Alexa Fluor 488 anti-His detection
Text: Cells were centrifuged at 300 g for five minutes.
Antibodies were serially diluted 1-to-3 in FACS buffer.

[7] = biological target: T4, full-length human FcγRIIIa variant V/V expressed on CHO cells (human, UniProt P08637 17-254); assay: flow cytometry, human FcγRIIIa (V/V) CHO cells, representative experiment
T4 construct: whole, on cells; also called human FcγRIIIa-CHO (variant V/V); human FcγRIIIa (V/V) CHO cells
Experimental: For the antibody binding assay, a frozen aliquot of human FcγRIIIa-CHO cells (variant V/V or variant F/F) was thawed at 37° C. and then transferred to a tube containing DPBS supplemented with 0.5% Bovine Serum Albumin and 0.05% Sodium Azide (FACS Buffer). Cells were centrifuged at 300 g for five minutes. The supernatant was discarded, and cells resuspended in FACS buffer were seeded in a 96-well U-bottom tissue culture plate at a density of 2×10⁵ cells per well in 50 μL. In a separate microplate, a 2× concentrated intermediate stock of each antibody was prepared. Antibodies were serially diluted 1-to-4 in FACS buffer. A total of 11 working dilutions ranging from 60 μg/mL to 0.000057 μg/mL were prepared. Fifty microlitres of each dilution were then transferred to the microplate containing human FcγRIIIa-CHO (variant V/V or variant F/F) cells. The cells were then incubated for 45 minutes at 4° C. […] After a 30-minute incubation on ice, the cells were washed twice with cold FACS Buffer, and the cells were analyzed by flow cytometry (BD LSR Fortessa Flow Cytometer). The data were analyzed using the FlowJo software by sequentially gating the FSC-A vs. SSC-A, and SSC-H vs. SSC-A. Mean fluorescence intensity (MFI) values for PE were calculated, and the data were plotted by GraphPad Prism software.

[8] = biological target: T1, wild type full-length cynomolgus monkey …; assay: flow cytometry, blocking of human CD155-Fc-PE binding to CHO cells expressing cynomolgus TIGIT; remark: listed apart in the source
Experimental: as §3, with “1-to-4” for “1-to-3”, “cynomolgus” for “human”

[9] = biological target: T1, wild type full-length cynomolgus monkey …; assay: flow cytometry, blocking of CD155-Fc-PE binding to cynomolgus TIGIT CHO cells, geomean of 3 experiments
Experimental: as §3, with “1-to-4” for “1-to-3”, “cynomolgus” for “human”

T1 sequence (A0A7N9I9V4 entry or part of it): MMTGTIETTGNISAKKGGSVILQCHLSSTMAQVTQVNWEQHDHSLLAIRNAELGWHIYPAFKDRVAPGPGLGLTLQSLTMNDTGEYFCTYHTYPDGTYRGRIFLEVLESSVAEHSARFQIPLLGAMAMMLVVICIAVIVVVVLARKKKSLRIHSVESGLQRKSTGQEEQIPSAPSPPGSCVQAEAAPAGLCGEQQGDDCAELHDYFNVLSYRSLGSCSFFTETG
T4 sequence (P08637 other isoform, or with tags, fused parts or gaps mutant limits assumed): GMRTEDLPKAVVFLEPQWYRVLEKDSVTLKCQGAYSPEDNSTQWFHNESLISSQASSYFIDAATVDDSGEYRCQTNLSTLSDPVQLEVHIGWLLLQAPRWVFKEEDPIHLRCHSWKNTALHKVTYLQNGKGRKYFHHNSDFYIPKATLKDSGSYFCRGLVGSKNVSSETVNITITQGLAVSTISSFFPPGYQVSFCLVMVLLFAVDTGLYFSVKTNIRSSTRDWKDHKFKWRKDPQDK

IC50 (read off the curve) [1]: ~2 µg/mL
B1: anti-TIGIT×CD96 multispecific molecule BA123 (bispecific antibody, human IgG1, kappa, lambda)
heavy 1: QVQLVQSGAEVKKPGASVKVSCKASGYTFTSYGISWVRQAPGQGLEWMGWISAYNANTNYAQKLQGRVTMTTDTSTSTAYMELRSLRSDDTAVYYCARSAGVLGGMDVWGRGTLVTVSSASTKGPSVFPLAPSSKSTSGGTAALGCLVKDYFPEPVTVSWNSGALTSGVHTFPAVLQSSGLYSLSSVVTVPSSSLGTQTYICNVNHKPSNTKVDKRVEPKSCDKTHTCPPCPAPELLGGPDVFLFPPKPKDTLMISRTPEVTCVVVDVSHEDPEVKFNWYVDGVEVHNAKTKPREEQYNSTYRVVSVLTVLHQDWLNGKEYKCKVSNKALPAPIEKTISKAKGQPREPQVYTLPPSREEMTKNQVSLSCAVKGFYPSDIAVEWESNGQPENNYKTTPPVLDSDGSFFLVSKLTVDKSRWQQGNVFSCSVMHEALHNHYTQKSLSLSPG
light 1: not shown
heavy 2: EVQLVQSGAEVKKPGSSVKVSCKASGYTFASYGISWVRQAPGQGLEWMGGITPFFNRVDVAEKFQGRVTITADKSTSTAYIELSSLRSEDTAVYYCARDLRRGGVGDAFDIWGRGTLVTVSSASTKGPSVFPLAPSSKSTSGGTAALGCLVKDYFPEPVTVSWNSGALTSGVHTFPAVLQSSGLYSLSSVVTVPSSSLGTQTYICNVNHKPSNTKVDKRVEPKSCDKTHTCPPCPAPELLGGPDVFLFPPKPKDTLMISRTPEVTCVVVDVSHEDPEVKFNWYVDGVEVHNAKTKPREEQYNSTYRVVSVLTVLHQDWLNGKEYKCKVSNKALPLPEEKTISKAKGQPREPQVYTLPPSREEMTKNQVSLWCLVKGFYPSDIAVEWESNGQPENNYKTTPPVLDSDGSFFLYSKLTVDKSRWQQGNVFSCSVMHEALHNHYTQKSLSLSPG
light 2: QSALTQPRSVSGSPGQSVTISCTGTSPDVGSHAYRSWYQQHPGKAPKLMIYEVSYRPSGVSNRFSGSKSGNTASLTISGLQAEDEADYYCSSYPPSSATVFGAGTKLTVLGQPKAAPSVTLFPPSSEELQANKATLVCLISDFYPGAVTVAWKADSSPVKAGVETTTPSKQSNNKYAASSYLSLTPEQWKSHRSYSCQVTHEGSTVEKTVAPTEC
notes: copies: 1 + 1 + 1 + 1

Kd [2]: 0.584 nM
koff [2]: 0.000356 s⁻¹
kon [2]: 610000 M⁻¹ s⁻¹
Kd [3]: 0.611 nM
koff [3]: 0.000385 s⁻¹
kon [3]: 631000 M⁻¹ s⁻¹
IC50 [4]: 0.164 µg/mL
EC50 (read off the curve) [5]: ~0.06 µg/mL
EC50 (read off the curve) [6]: ~0.3 µg/mL
B2: anti-TIGIT×CD96 multispecific molecule BA127 (bispecific antibody, human IgG1, kappa, lambda)
heavy 1: QVQLVQSGAEVKKPGASVKVSCKASGYTFTTYALHWVRQAPGQRLEWMGWINTGSGDTKYSQKFQGRVTITRDTSASTAYMELSSLRSEDTAVYYCARSLGVYYGMDVWGQGTLVTVSSASTKGPSVFPLAPSSKSTSGGTAALGCLVKDYFPEPVTVSWNSGALTSGVHTFPAVLQSSGLYSLSSVVTVPSSSLGTQTYICNVNHKPSNTKVDKRVEPKSCDKTHTCPPCPAPELLGGPDVFLFPPKPKDTLMISRTPEVTCVVVDVSHEDPEVKFNWYVDGVEVHNAKTKPREEQYNSTYRVVSVLTVLHQDWLNGKEYKCKVSNKALPAPIEKTISKAKGQPREPQVYTLPPSREEMTKNQVSLSCAVKGFYPSDIAVEWESNGQPENNYKTTPPVLDSDGSFFLVSKLTVDKSRWQQGNVFSCSVMHEALHNHYTQKSLSLSPG
light 1: not shown
heavy 2: B1 heavy 2
light 2: B1 light 2
notes: Anti-CD96 arm = BA139, anti-TIGIT arm = BA150; copies: 1 + 1 + 1 + 1

Area under the curve (AUC) [7]: 50100
IC50 (read off the curve) [8]: ~0.2 µg/mL
IC50 [9]: 0.243 µg/mL
B3: anti-TIGIT monospecific antibody BA148 (antibody, human IgG1, lambda)
heavy: EVQLVQSGAEVKKPGSSVKVSCKASGYTFASYGISWVRQAPGQGLEWMGGITPFFNRVDVAEKFQGRVTITADKSTSTAYIELSSLRSEDTAVYYCARDLRRGGVGDAFDIWGRGTLVTVSSASTKGPSVFPLAPSSKSTSGGTAALGCLVKDYFPEPVTVSWNSGALTSGVHTFPAVLQSSGLYSLSSVVTVPSSSLGTQTYICNVNHKPSNTKVDKRVEPKSCDKTHTCPPCPAPELLGGPDVFLFPPKPKDTLMISRTPEVTCVVVDVSHEDPEVKFNWYVDGVEVHNAKTKPREEQYNSTYRVVSVLTVLHQDWLNGKEYKCKVSNKALPLPEEKTISKAKGQPREPQVYTLPPSREEMTKNQVSLTCLVKGFYPSDIAVEWESNGQPENNYKTTPPVLDSDGSFFLYSKLTVDKSRWQQGNVFSCSVMHEALHNHYTQKSLSLSPGK
light: B1 light 2
notes: IgG1; also called anti-TIGIT IgG1 antibody BA148
